The target in one data set is T1, ANXA11 Ct (UniProt P50995 201-505).
T1 sequence: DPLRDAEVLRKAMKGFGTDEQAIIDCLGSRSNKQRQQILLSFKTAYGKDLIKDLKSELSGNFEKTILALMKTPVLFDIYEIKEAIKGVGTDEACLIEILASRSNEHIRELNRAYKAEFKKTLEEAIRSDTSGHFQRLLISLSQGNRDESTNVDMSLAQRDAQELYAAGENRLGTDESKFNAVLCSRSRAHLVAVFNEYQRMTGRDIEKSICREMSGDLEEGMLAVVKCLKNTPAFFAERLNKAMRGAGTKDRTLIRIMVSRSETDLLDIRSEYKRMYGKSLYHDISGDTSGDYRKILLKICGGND
Put plainly: MST.

The target of a further data set is ANXA11 Nt (UniProt P50995 1-191). Put plainly: MST.
Chain of ANXA11 Nt (P50995 1-191): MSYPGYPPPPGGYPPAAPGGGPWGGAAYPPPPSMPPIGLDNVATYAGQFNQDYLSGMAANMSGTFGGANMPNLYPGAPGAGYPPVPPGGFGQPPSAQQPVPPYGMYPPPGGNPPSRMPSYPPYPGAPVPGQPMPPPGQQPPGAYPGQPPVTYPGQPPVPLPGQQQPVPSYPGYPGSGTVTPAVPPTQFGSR

UUUUUUUUUU (ssRNA) [poly-U 10-mer RNA]: the Kd in the data set with ANXA11 Ct was 3.55 ± 0.3 µM; with ANXA11 Nt, 4.18 ± 0.8 µM.
